Patent US7867732B2, “Isolated polypeptide binding to a sugar chain, polynucleotide encoding the polypeptide and use of the polypeptide and polynucleotide” (National University of Corporation Hiroshima University, priority 2005, dated 2011)
In brackets after ≈: the same amount, converted by molar mass.

B1: BML-17: polypeptide (lectin) isolated from seaweed Bryopsis maxima; amino acid sequence of SEQ ID NO: 2 (protein, listed as Bryopsis maxima)
chain: VIYQDPVTSDMFAKIPMPGHRGPWYVCHSSGDWSRNEPVFGRCALDAKGMVEAYFPYGGKDIKWPSRWSAVLTTGVYWGKYNDWKQADCNGGQQVVDGGRGAVTVRMDGLSECKGWTTGKSSHNEVWFGCNGKEVGSWLSDTPASDVFPLCQEYGAAVKLVHMGRAFN

Key:
BML-17 [1] = experiment: Hemagglutination-inhibition test with BML-17 and trypsin-treated rabbit erythrocytes; assay type: cell-based, Bryopsis maxima
Method: (§1) Hemagglutinating activity was measured using a micro titer method. Twenty-five μl of serially two-fold dilutions of each purified fraction solution adjusted with saline was placed on a micro titer plate. Each diluted solution was supplemented with 25 μl of a 2% suspension of trypsin-treated rabbit erythrocytes and was gently stirred. The mixture was allowed to stand at room temperature for 1.5 hours and agglutination was observed. Agglutination was evaluated with naked eye. Agglutination of 50% or greater percentage of red blood cells was evaluated as positive. Agglutinating activity was given by agglutination titer, i.e., the protein concentration of maximum diluent showing agglutinating activity.
(§2) In this Example, trypsin-treated rabbit red blood cells (TRBC) were used as red blood cells. TRBC was prepared as follows. First, 2 ml of blood was collected from the ear of a rabbit kept in laboratory. The blood sample was washed 3 times with about 50 ml of saline, and was supplemented with 50 ml of saline to obtain a 2% rabbit blood cell suspension. The solution was supplemented with 1/10 volume of 0.5% trypsin in saline, and was allowed to stand at 37° C. for 1.5 hours. The trypsin-treated red blood cells were then washed 3 times with saline, and were supplemented with 45 ml of saline to obtain a 2% suspension of trypsin-treated rabbit erythrocytes (or blood cells) (TRBC).
Hemagglutination-inhibition test was performed according to the following procedure. First, each 25 μl of serially two-fold dilutions of sugar solution in saline was placed on a micro titer plate. The concentration of the original solutions of sugars examined was 100 mM for monosaccharides and oligosaccharides, and 2 mg/ml for glycoproteins. Each solution was mixed with 25 μl of BML-17 solution that had been adjusted to an agglutination titer of 4, and allowed to stand for 1.5 hours at room temperature after gentle stirring. Then, 25 μl of TRBC was added, and the mixture was allowed to stand for 2 hours at room temperature to observe hemagglutination inhibitory capability. The presence or absence of hemagglutination inhibitory capability was determined by naked eye. The test was positive when no hemagglutination occurred in about 100% of the red blood cells.
The hemagglutination inhibition test used D-glucose, D-galactose, D-mannose, N-acetyl-D-glucosamine, N-acetyl-D-galactosamine, D-xylose, L-fucose, fructose, lactose, and raffinose as monosaccharides and oligosaccharides. As glycoproteins, mucin (bovine submaxillary gland) and asialomucin, fetuin (type III, calf serum) and asialofetuin, transferrin (human) and asialotransferrin, α1-acid glycoprotein (human) and alialo-α1-acid glycoprotein, and yeast mannan were used.

BML-17 [2] = experiment: as above; assay type: cell-based, Bryopsis maxima; details: gel filtration active fractions instead of purified BML-17
[3] = system: chicken egg yolk antibody (chicken IgY antibody); experiment: Search for lectins that bind to chicken egg yolk antibody by SPR (Biacore 2000); assay type: binding; details: chicken IgY immobilized as ligand
Source text: Assessment was made as to affinity of the different types of lectins and chicken egg yolk antibody (chicken IgY antibody). Briefly, using Biacore 2000 (BIACORE) that employs the principle of surface plasmon resonance method (hereinafter, “SPR method”), chicken egg yolk antibodies (chicken IgY antibodies) were immobilized as ligands on a sensor chip, and measurements were made according to manuals using each type of lectin solution as an analyte. The SPR technique allows for measurement of specific interactions between biomolecules both quickly and quantitatively, without labeling the biomolecules. According to this technique, the ligands are immobilized on a surface of the sensor chip, which is then supplemented with a solution of substance (analyte) that acts on the ligand. Slight changes in mass caused by the binding and dissociation of the molecules are then detected as changes in SPR signals. The mass change is represented by resonance unit (RU). One thousand RU is equivalent to a change in reflection angle of 0.1° caused by resonance, and it means that the analyte has bound to the ligand at 1 ng/mm^2. The surface of the sensor chip is coated with dextran, and the ligands are immobilized primarily via carboxyl groups that have been introduced into the dextran.
Note that, as permitted, the lectins tested as analytes were selected to have different sugar binding specificity. The chicken egg yolk antibody (chicken IgY antibodies) tested as ligands were obtained by purification from egg yolk, using Eggcellent Chicken IgY Purification Kit (Pierce Chem. Co. USA).

bovine tyroglogulin = target: T1, bovine tyroglogulin (Bos taurus, UniProt P01267); experiment: Elutability of lectins bound to a bovine tyroglobulin-immobilized chip (SPR); assay type: binding, cattle; details: 0.5 M D-mannose
T1 construct: purchased SIGMA
T1 sequence (P01267 20-2769): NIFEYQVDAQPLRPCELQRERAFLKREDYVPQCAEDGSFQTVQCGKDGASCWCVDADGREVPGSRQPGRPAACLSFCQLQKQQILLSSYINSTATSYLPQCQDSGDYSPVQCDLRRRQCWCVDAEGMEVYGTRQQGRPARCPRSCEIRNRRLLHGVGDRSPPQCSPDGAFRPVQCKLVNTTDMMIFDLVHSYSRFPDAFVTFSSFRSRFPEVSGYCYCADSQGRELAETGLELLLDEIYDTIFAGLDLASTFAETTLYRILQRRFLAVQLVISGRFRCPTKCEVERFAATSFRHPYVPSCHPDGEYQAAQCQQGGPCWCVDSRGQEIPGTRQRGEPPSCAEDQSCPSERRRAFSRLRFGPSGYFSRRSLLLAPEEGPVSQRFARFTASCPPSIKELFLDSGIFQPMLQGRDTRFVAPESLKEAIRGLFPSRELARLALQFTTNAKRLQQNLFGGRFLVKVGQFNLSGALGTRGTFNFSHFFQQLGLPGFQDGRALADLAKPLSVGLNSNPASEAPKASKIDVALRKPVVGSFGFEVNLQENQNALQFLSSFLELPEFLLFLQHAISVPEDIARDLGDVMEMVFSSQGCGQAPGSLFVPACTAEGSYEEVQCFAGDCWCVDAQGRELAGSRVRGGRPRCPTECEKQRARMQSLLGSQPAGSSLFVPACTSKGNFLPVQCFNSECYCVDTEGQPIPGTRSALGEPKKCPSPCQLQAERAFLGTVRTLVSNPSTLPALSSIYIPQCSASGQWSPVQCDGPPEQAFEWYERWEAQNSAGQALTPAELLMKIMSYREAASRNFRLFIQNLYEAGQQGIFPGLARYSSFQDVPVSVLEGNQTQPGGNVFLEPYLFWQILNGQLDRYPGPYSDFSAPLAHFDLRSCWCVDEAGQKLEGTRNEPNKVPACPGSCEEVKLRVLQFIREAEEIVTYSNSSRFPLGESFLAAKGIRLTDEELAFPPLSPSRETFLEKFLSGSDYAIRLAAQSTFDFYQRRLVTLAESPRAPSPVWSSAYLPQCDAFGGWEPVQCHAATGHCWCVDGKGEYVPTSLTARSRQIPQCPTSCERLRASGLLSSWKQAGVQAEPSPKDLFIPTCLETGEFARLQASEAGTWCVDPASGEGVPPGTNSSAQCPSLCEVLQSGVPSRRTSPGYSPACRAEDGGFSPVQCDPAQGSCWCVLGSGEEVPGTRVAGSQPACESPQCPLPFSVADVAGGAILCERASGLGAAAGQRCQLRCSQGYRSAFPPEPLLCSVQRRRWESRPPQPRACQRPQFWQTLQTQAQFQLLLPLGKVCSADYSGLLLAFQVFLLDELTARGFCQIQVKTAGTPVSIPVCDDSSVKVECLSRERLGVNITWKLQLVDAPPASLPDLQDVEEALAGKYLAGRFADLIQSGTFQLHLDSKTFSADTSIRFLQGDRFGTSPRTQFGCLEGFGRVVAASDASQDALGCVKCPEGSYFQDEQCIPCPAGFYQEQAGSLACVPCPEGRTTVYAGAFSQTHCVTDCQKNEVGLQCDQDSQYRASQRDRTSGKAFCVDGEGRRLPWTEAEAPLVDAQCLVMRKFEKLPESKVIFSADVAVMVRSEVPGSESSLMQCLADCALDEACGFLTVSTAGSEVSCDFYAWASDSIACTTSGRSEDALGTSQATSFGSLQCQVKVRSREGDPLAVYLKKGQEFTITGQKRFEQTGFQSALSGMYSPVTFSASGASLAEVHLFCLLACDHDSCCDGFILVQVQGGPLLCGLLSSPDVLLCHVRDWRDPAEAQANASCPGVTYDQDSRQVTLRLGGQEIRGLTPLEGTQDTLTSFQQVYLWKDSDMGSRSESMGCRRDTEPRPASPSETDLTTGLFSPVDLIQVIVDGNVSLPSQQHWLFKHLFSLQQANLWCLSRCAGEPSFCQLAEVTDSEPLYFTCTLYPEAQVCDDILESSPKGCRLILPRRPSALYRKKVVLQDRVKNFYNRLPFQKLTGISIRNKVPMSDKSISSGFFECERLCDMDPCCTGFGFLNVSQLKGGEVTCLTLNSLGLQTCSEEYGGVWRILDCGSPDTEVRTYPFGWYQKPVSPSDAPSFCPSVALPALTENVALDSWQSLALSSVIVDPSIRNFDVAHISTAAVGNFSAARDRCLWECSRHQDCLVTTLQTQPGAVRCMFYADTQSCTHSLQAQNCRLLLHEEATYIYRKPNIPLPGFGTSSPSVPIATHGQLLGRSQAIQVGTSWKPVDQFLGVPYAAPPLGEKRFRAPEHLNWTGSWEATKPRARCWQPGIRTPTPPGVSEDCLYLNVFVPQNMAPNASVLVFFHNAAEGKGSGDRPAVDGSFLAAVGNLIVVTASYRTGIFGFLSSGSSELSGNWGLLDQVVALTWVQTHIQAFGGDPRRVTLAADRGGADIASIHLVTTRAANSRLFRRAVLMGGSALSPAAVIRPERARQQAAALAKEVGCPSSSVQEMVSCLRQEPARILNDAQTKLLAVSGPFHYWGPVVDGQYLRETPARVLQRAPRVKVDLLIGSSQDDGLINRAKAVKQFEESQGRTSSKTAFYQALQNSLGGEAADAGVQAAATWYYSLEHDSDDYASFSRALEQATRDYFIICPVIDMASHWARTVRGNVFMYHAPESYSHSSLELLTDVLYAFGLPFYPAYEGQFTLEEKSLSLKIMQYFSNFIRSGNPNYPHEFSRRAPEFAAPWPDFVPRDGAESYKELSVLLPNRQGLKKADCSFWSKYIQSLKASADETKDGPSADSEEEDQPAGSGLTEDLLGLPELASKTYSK
Source text: As in the case of chicken egg yolk antibody, a chip having immobilized thereon bovine tyroglogulin including the high-mannose-type sugar chain and the complex-type sugar chain was used to assess elutability of lectins that had bound to the chip. Note that, tyroglogulin was immobilized in a maximum amount (12,095 RU) on CM5 sensor chip, so as to make it easier to confirm specific binding and elution. Each solution of analyte (lectin) contained in HBS-EP (equilibriated) buffer (BIACORE) at a concentration of 100 μg/ml was flown at a flow rate of 5 μl/min until the amount of bonding reached equilibrium. After washing with HBS-EP buffer and the dissociation has reached equilibrium, 50 μl of 0.5 M D-mannose in the same buffer was injected. Based on the sensorgram, the amount of binding (RU) at the time when 50 μl (5 μg) of analyte (lectin) solution was injected was measured. Then, the amount of residual bonding (RU) of analyte (lectin) after buffer washing and elution with 50 μl of 0.5 M D-mannose was measured. The amount of residual bonding was given by percentage with respect to the maximum amount of bonding.
FIG. 3 represents the amount of residual bonding (%) of analyte (lectin) after the bonding, washing, and elution with 0.5 M D-mannose. FIG. 3 represents relative amounts of lectin that remain bonded to the chip after the dissociation with HBS-EP buffer, and relative amounts of lectin that remain after the elution with 0.5M D-mannose, when the amount of lectin binding to the bovine tyroglobulin immobilized chip exposed to the respective lectins is taken at 100%.

asialotransferrin = target: T2, asialotransferrin (Homo sapiens, UniProt P02787); experiment: SPR kinetics analysis of affinity between lectins and immobilized asialotransferrin; assay type: binding
T2 construct: purchased SIGMA
T2 sequence (P02787 20-698): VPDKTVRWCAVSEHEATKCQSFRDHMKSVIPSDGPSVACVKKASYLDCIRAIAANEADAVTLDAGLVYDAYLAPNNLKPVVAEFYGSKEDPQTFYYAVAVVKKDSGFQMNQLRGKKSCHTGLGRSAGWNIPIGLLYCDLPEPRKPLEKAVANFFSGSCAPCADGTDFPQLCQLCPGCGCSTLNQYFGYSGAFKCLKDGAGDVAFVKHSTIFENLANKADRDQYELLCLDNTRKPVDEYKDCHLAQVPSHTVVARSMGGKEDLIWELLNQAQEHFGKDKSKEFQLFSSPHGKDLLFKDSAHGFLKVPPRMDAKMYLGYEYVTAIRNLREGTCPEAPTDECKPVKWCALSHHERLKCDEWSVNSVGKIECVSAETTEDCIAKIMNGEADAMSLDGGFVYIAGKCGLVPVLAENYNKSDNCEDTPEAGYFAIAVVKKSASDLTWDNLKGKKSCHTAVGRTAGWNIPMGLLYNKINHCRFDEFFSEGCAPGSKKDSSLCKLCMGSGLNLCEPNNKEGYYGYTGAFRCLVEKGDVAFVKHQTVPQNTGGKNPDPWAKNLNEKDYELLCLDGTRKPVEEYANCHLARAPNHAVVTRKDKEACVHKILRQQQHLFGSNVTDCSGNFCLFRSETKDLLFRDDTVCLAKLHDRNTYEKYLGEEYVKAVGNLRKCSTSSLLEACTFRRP
Method: (§3) Immobilization was performed according to manuals. Specifically, Taka-amylase A was immobilized using a surface thiol coupling method, and asialofetuin, bovine tyroglobulin, antibody, and BSA were immobilized using an amine coupling method. Each sample was immobilized in an amount within a range of 1000 RU to 1500 RU as adjusted by a manual injection method. Purity of the glycoprotein was confirmed by SDS-PAGE or MALDI-TOF-MS.
Affinity between each glycoprotein and each lectin was analyzed by SPR technique. Prior to analysis, preliminary analyses were made to assess analysis methods. […] Approximate KD values were calculated from a resulting sensorgram, and five or more steps of two-fold series dilutions of analyte (lectin) were prepared at target concentrations of 0.1 to 10 KD [M]. An analysis program was created using “Customized Application” according to the manual, and a subtraction function was used in which subtraction was made from flow cells that had glycoproteins immobilized thereon, from among four flow cells in the sensor chip. […] Under this analysis program, each analyte (lectin) solution was flown on the sensor chip at a flow rate of 30 μl/min for 3 minutes, and buffer was flown for 3 minutes to measure the amount of lectin that had bonded/dissociated. […]

[4] = system: chicken egg yolk antibody (chicken IgY antibody); experiment: SPR kinetics analysis of affinity between lectins and immobilized chicken egg yolk antibody; assay type: binding; details: lectin as analyte; for Kd: read-out: Dissociation Constant KD
Method: as §3
Affinity between each glycoprotein and each lectin was analyzed by SPR technique. Prior to analysis, preliminary analyses were made to assess analysis methods. […] Approximate KD values were calculated from a resulting sensorgram, and five or more steps of two-fold series dilutions of analyte (lectin) were prepared at target concentrations of 0.1 to 10 KD [M]. An analysis program was created using “Customized Application” according to the manual, and a subtraction function was used in which subtraction was made from flow cells that had glycoproteins immobilized thereon, from among four flow cells in the sensor chip. […] Under this analysis program, each analyte (lectin) solution was flown on the sensor chip at a flow rate of 30 μl/min for 3 minutes, and buffer was flown for 3 minutes to measure the amount of lectin that had bonded/dissociated. Note that, an increase in RU during the time period from 10 seconds before addition of the analyte and to 10 seconds before the end of addition of analyte was given as the amount of bonding. A decrease in RU in the time period from 10 seconds after the addition of buffer to 10 seconds before the end of addition of buffer was given as the amount of dissociation.
Next, the sensor chip was washed with 0.5 M D-mannose, 10 mM glycine-HCl (pH 4.0), 50 mM HCl, and 10 mM NaOH for reproduction. Concerning the resulting sensorgram, the bonding phase and dissociation phase were fitted together with the curve to determine a bonding rate constant Ka, a dissociation rate constant kd, an affinity constant KA, and a dissociation constant KD.
Table 1 represents affinity constants of chicken egg yolk antibody and the various lectins. Table 1 represents bonding rate constant Ka (M^−1s^−1), dissociation rate constant Kd (s^−1), affinity constant KA (M^−1), and dissociation constant KD (M). The greater the affinity constant, the greater the affinity (stronger binding).

[5] = system: trypsin-treated rabbit red blood cell (TRBC); experiment: Temperature stability and pH stability of BML-17 by agglutinating activity; assay type: physicochemical; details: 30-minute heat treatment
Method: as §1
as §2, with “The trypsin-treated red blood cells were then washed 3 times with saline, and were supplemented with 45 ml of saline to obtain a 2% suspension of trypsin-treated rabbit erythrocytes (or blood cells) (TRBC).” left out
Temperature stability and pH stability of BML-17 were evaluated, using agglutinating activity for trypsin-treated rabbit red blood cell (TRBC) as a measure.

Row | Molecule | Inhibition of agglutinating activity of BML-17 (in words) (BML-17 [1]; TRBC) | Minimum inhibitory concentration (BML-17 [1]; monosaccharides and oligosaccharides, inhibition of BML-17 (agglutination titer 4) agglutination of TRBC) [mM] | Inhibition of agglutinating activity of the active fractions obtained by gel filtration (BML-17 [2]) | Binding to chicken egg yolk antibody (in words) [3] | Elution of bound lectin with D-mannose (bovine tyroglogulin) | Affinity Constant KA (asialotransferrin) | Affinity Constant KA [4] [M⁻¹] | Binding Rate Constant ka [4] [M⁻¹ s⁻¹] | Dissociation Rate Constant kd [4] [s⁻¹] | Kd [4] [nM] | Temperature at which agglutinating activity attenuated [5] [°C]
1 | O=C[C@@H](O)[C@@H](O)[C@H](O)[C@H](O)CO [D-Mannose] | inhibited | 12.5 (≈ 2250 µg/mL) | not inhibited at all |  |  |  |  |  |  |  | 
2 | Con A: Canavallia ensiformis-derived lectin |  |  |  | binding to chicken egg yolk antibody (chicken IgY antibodies) occurs | partially eluted with D-mannose | 10^6 M^−1 | 1.87e+07 | 467 | 2.49e-05 | 53.4 | 
3 | B1 |  |  |  | binding to chicken egg yolk antibody (chicken IgY antibodies) occurs | specifically and quantitatively eluted with D-mannose |  | 8.36e+07 | 490000 | 0.00586 | 12 | ≥ 60
